Legend:
FUBP1 KH4 [1] = molecular target: T1, FUBP1 KH4 (UniProt Q96AE4 376-443); assay: EMSA; ITC: 25 mM HEPES pH 7.5, 50 mM NaCl (150 mM for tandem and KH1-4), 0.5 mM TCEP, 20 C; native PAGE: 200 uM protein, 5x ssDNA, 25 mM HEPES pH 7.5, 50 mM NaCl, 0.5 mM TCEP, 4 C, 0.5x TBE (KH4 0.5x TAE); details: protein: recombinant; tags: N-terminal His6 kept in native PAGE; removed by TEV in general protocol
FUBP1 KH2 [2] = molecular target: T2, FUBP1 KH2 (UniProt Q96AE4 185-251); assay: as above; details: protein: recombinant; tags: His6 removed by TEV
FUBP1 KH3 [3] = molecular target: T3, FUBP1 KH3 (UniProt Q96AE4 275-339); assay: as above; details: protein: recombinant; tags: His6 removed by TEV
FUBP1 KH1 [4] = molecular target: T4, FUBP1 KH1 (UniProt Q96AE4 100-164); assay: as above; details: protein: recombinant; tags: His6 removed by TEV
FUBP1 KH4 [5] = molecular target: T1, FUBP1 KH4; assay: ITC; 50 mM NaCl; Kd only in Fig 3C; ITC: 25 mM HEPES pH 7.5, 50 mM NaCl (150 mM for tandem and KH1-4), 0.5 mM TCEP, 20 C; native PAGE: 200 uM protein, 5x ssDNA, 25 mM HEPES pH 7.5, 50 mM NaCl, 0.5 mM TCEP, 4 C, 0.5x TBE (KH4 0.5x TAE); details: protein: recombinant; tags: N-terminal His6 kept in native PAGE; removed by TEV in general protocol
FUBP1 KH2 [6] = molecular target: T2, FUBP1 KH2; assay: as above; details: protein: recombinant; tags: His6 removed by TEV
FUBP1 KH1 [7] = molecular target: T4, FUBP1 KH1; assay: as above; details: protein: recombinant; tags: His6 removed by TEV
FUBP1 KH3 [8] = molecular target: T3, FUBP1 KH3; assay: ITC; 50 mM NaCl; ITC: 25 mM HEPES pH 7.5, 50 mM NaCl (150 mM for tandem and KH1-4), 0.5 mM TCEP, 20 C; native PAGE: 200 uM protein, 5x ssDNA, 25 mM HEPES pH 7.5, 50 mM NaCl, 0.5 mM TCEP, 4 C, 0.5x TBE (KH4 0.5x TAE); details: protein: recombinant; tags: His6 removed by TEV
FUBP1 KH1-4 = FUBP1 KH1-4 (UniProt Q96AE4 100-443); assay: ITC; 150 mM NaCl; ITC: 25 mM HEPES pH 7.5, 50 mM NaCl (150 mM for tandem and KH1-4), 0.5 mM TCEP, 20 C; native PAGE: 200 uM protein, 5x ssDNA, 25 mM HEPES pH 7.5, 50 mM NaCl, 0.5 mM TCEP, 4 C, 0.5x TBE (KH4 0.5x TAE); details: protein: recombinant; tags: His6 removed by TEV
FUBP1 KH2-3 = FUBP1 KH2-3 (UniProt Q96AE4 185-339); assay: ITC; 150 mM NaCl; range given for the three tandems; ITC: 25 mM HEPES pH 7.5, 50 mM NaCl (150 mM for tandem and KH1-4), 0.5 mM TCEP, 20 C; native PAGE: 200 uM protein, 5x ssDNA, 25 mM HEPES pH 7.5, 50 mM NaCl, 0.5 mM TCEP, 4 C, 0.5x TBE (KH4 0.5x TAE); details: protein: recombinant; tags: His6 removed by TEV
FUBP1 KH1-2 = FUBP1 KH1-2 (UniProt Q96AE4 100-251); assay: as above; details: protein: recombinant; tags: His6 removed by TEV
FUBP1 KH3-4 = FUBP1 KH3-4 (UniProt Q96AE4 275-443); assay: as above; details: protein: recombinant; tags: His6 removed by TEV
FUBP1 KH4 [9] = molecular target: T1, FUBP1 KH4; assay: ITC; 50 mM NaCl; no preference between fragments 7 and 8; ITC: 25 mM HEPES pH 7.5, 50 mM NaCl (150 mM for tandem and KH1-4), 0.5 mM TCEP, 20 C; native PAGE: 200 uM protein, 5x ssDNA, 25 mM HEPES pH 7.5, 50 mM NaCl, 0.5 mM TCEP, 4 C, 0.5x TBE (KH4 0.5x TAE); details: protein: recombinant; tags: N-terminal His6 kept in native PAGE; removed by TEV in general protocol
FUBP1 KH2 [10] = molecular target: T2, FUBP1 KH2; assay: ITC; 50 mM NaCl; preferred over fragment 8; ITC: 25 mM HEPES pH 7.5, 50 mM NaCl (150 mM for tandem and KH1-4), 0.5 mM TCEP, 20 C; native PAGE: 200 uM protein, 5x ssDNA, 25 mM HEPES pH 7.5, 50 mM NaCl, 0.5 mM TCEP, 4 C, 0.5x TBE (KH4 0.5x TAE); details: protein: recombinant; tags: His6 removed by TEV

T2 sequence (Q96AE4 185-251): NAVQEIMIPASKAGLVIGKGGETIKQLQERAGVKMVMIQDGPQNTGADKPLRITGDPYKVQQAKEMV
T1 sequence (Q96AE4 376-443): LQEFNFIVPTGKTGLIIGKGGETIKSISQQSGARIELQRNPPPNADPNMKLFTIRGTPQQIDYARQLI
T3 sequence (Q96AE4 275-339): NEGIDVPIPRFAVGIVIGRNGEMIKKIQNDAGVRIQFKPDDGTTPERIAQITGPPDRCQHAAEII
T4 sequence (Q96AE4 100-164): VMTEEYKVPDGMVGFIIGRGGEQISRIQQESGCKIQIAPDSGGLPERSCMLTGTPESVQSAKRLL
Chain of FUBP1 KH2-3 (Q96AE4 185-339): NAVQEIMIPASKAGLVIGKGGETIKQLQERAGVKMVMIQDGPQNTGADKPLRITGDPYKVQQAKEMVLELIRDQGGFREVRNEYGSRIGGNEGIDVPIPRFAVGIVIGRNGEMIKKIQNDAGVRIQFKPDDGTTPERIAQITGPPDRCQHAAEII
Chain of FUBP1 KH1-2 (Q96AE4 100-251): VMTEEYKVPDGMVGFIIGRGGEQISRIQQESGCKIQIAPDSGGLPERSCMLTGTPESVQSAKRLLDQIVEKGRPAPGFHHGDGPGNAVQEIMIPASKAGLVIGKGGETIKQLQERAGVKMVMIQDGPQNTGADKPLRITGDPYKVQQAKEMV
Chain of FUBP1 KH3-4 (Q96AE4 275-443): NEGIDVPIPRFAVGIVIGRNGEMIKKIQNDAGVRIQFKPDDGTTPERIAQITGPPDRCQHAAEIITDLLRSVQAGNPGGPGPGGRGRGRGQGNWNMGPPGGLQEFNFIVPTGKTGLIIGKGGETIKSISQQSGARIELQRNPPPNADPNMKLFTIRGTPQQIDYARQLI
Chain of FUBP1 KH1-4 (Q96AE4 100-443): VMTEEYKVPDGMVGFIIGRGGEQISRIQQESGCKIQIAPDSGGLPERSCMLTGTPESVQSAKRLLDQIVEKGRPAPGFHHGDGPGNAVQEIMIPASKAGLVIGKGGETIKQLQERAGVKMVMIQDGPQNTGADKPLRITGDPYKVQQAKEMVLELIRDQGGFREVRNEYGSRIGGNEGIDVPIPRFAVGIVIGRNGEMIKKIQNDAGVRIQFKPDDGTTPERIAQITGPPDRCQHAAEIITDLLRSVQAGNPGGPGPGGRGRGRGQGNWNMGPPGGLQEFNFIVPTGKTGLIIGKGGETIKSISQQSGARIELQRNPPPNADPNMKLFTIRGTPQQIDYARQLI

B1: FUSE fragment 10, 10-mer (ssDNA)
DNA: TTCCACGGAA
binding result (FUBP1 KH4 [1]): no binding | binding result (FUBP1 KH2 [2]): no binding

B2: FUSE fragment 8, 10-mer (native PAGE) (ssDNA)
DNA: TTTGTGTTAA
binding result (FUBP1 KH3 [3]): binds | binding result (FUBP1 KH1 [4]): binds

B3: FUSE fragment 8, 8-mer (ITC) (ssDNA)
DNA: TTGTGTTA
binding signal (FUBP1 KH4 [5]): > 5 fold weaker than KH3 (at least) | binding signal (FUBP1 KH2 [6]): > 5 fold weaker than KH3 (at least) | binding signal (FUBP1 KH1 [7]): > 5 fold weaker than KH3 (at least) | Kd (FUBP1 KH3 [8]): 17 µM

B4: 47-mer c-Myc FUSE (ssDNA)
DNA: ATGTATATTCCCTCGGGATTTTTTATTTTGTGTTATTCCACGGCATG
Kd (FUBP1 KH1-4): ~0.085 µM | Kd (FUBP1 KH2-3): ~5.29 µM | Kd (FUBP1 KH1-2): ~5.29 µM | Kd (FUBP1 KH3-4): ~5.29 µM

B5: FUSE fragment 7, 8-mer (ITC) (ssDNA)
DNA: TATTTTGT
binding result (FUBP1 KH4 [9]): binds | binding result (FUBP1 KH2 [10]): binds

B6: FUSE fragment 4, 10-mer (ssDNA)
DNA: CCCTCGGGAA
binding result (FUBP1 KH4 [1]): no binding | binding result (FUBP1 KH2 [2]): no binding

From article PMC7417555, “Comparative structural analyses and nucleotide-binding characterization of the four KH domains of FUBP1”
